Assay results: publication PMC11238716 (ACS Medicinal Chemistry Letters, 2024)

Target: the molecule itself
Experiment: SEC

B1: 6 × HisMBP-SREBP-1a (1–198) (domain or fragment, human, UniProt P36956-1 1-198, looked up)
chain: MDEPPFSEAALEQALGEPCDLDAALLTDIEDMLQLINNQDSDFPGLFDPPYAGSGAGGTDPASPDTSSPGSLSPPPATLSSSLEAFLSGPQAAPSPLSPPQPAPTPLKMYPSMPAFSPGPGIKEESVPLSILQTPTPQPLPGALLPQSFPAPAPPQFSSTPVLGYPSPPGGFSTGSPPGNTQQPLPGLPLASPPGVPP
B1: binds.
